This note sets out measurements from doi:10.1101/632075, “Determinants of FtsZ C-terminal linker-dependent regulation of cell wall metabolism in Caulobacter crescentus” (bioRxiv, 2019).

The data set deals with the molecule itself. In words: negative-stain transmission electron microscopy of polymers; 4 µM protein with 2 mM GTP for 16 minutes in 50 mM HEPES-KOH pH 7.2, 300 mM KCl, 10 mM MgCl2, 0.1 mM EDTA; spotted on carbon coated grids, uranyl formate stain.

B1: Caulobacter crescentus FtsZ (natural protein, C. crescentus, UniProt B8H080 1-508, looked up)
chain: MAISLSAPRTTELKPRIVVFGVGGAGGNAVNNMIEAGLEGVEFVVANTDAQQLQFAKTDRRIQLGVQITQGLGAGAHPEVGMSAAEESFPEIGEHLDGAHMVFITAGMGGGTGTGAAPIIAKCARERGILTVGVVTKPFHFEGRHRMRLADSGIQELQRYVDTLIVIPNQNLFRVANERTTFAEAFGMADQVLHSGVRSITDLMVLPGLINLDFADVRTVMTEMGKAMMGTGEGTGEDRALMAAQNAIANPLLDEVSLKGAKAVLVNVTGGMDMTLLEVDEAANAISDQVDPEANIIFGAAFDPSLEGVIRVSVVATGMDGASIAQIEPKPVSRNISAAPLIAETSRPAPQPEPARPTARYEAARPAERPVAFAPEPAPEPEIVMSAPQPEPEAELYYDEPTVAEEPRVSAAPARSVNRIVDPLVDDVAEEPLFPENNYYEERRPQKQGGFFSMFGGGRQRYEQQASAPQAQARSAQSARPQLQPIETPQADDAEDLEIPSFLRRLAN
notes: FtsZ of Caulobacter crescentus, wild type; regions: GTPase domain, C-terminal linker (CTL), C-terminal conserved peptide (CTC); No tag is named; also called CcFtsZ; WT FtsZ; source: E. coli Rosetta(DE3)pLysS, pET21 vector, purified (anion exchange, ammonium sulfate precipitation, SEC)
As to B1, the binding result is listed as “binds”.

B2: Escherichia coli FtsZ (natural protein, E. coli, UniProt P0A9A6 1-383, looked up)
chain: MFEPMELTNDAVIKVIGVGGGGGNAVEHMVRERIEGVEFFAVNTDAQALRKTAVGQTIQIGSGITKGLGAGANPEVGRNAADEDRDALRAALEGADMVFIAAGMGGGTGTGAAPVVAEVAKDLGILTVAVVTKPFNFEGKKRMAFAEQGITELSKHVDSLITIPNDKLLKVLGRGISLLDAFGAANDVLKGAVQGIAELITRPGLMNVDFADVRTVMSEMGYAMMGSGVASGEDRAEEAAEMAISSPLLEDIDLSGARGVLVNITAGFDLRLDEFETVGNTIRAFASDNATVVIGTSLDPDMNDELRVTVVATGIGMDKRPEITLVTNKQVQQPVMDRYQQHGMAPLTQEQKPVAKVVNDNAPQTAKEPDYLDIPAFLRKQAD
notes: FtsZ of Escherichia coli, wild type; No tag is named; also called EcFtsZ; source: E. coli Rosetta(DE3)pLysS, pET21 vector, purified (anion exchange, ammonium sulfate precipitation, SEC)
On to B2, for which the binding result is given as “binds”.
